According to publication PMC8807537 (Acta Naturae, 2021):

Molecular target: T1, recombinant protein GP Zaire ebolavirus (H. sapiens-wt/GIN/2014/Kissidougou-C15 strain) (Zaire ebolavirus, …, UniProt X5HMX4, strain)
T1 construct: also called EBOV GP; recombinant EBOV GP
Assay: ELISA; indirect ELISA; […] (1 ug/ml) […]
Details: both partners purified

B1: control antibody MAb114 (antibody, V domains shown)
VH: EVQLVESGGGLIQPGGSLRLSCAASGFALRMYDMHWVRQTIDKRLEWVSAVGPSGDTYYADSVKGRFAVSRENAKNSLSLQMNSLTAGDTAIYYCVRSDRGVAGLFDSWGQGILVTVSS
VL: DIQMTQSPSSLSASVGDRITITCRASQAFDNYVAWYQQRPGKVPKLLISAASALHAGVPSRFSGSGSGTHFTLTISSLQPEDVATYYCQNYNSAPLTFGGGTKVEIK
binding result: binds
